Measurements from article PMC3936742 (Nucleic Acids Research, 2013).

Biological target: T1, Flag-MnmC(o), C-terminal oxidoreductase domain of MnmC (amino acids 250-668) (E. coli, UniProt P77182 250-668)
T1 sequence (looked up): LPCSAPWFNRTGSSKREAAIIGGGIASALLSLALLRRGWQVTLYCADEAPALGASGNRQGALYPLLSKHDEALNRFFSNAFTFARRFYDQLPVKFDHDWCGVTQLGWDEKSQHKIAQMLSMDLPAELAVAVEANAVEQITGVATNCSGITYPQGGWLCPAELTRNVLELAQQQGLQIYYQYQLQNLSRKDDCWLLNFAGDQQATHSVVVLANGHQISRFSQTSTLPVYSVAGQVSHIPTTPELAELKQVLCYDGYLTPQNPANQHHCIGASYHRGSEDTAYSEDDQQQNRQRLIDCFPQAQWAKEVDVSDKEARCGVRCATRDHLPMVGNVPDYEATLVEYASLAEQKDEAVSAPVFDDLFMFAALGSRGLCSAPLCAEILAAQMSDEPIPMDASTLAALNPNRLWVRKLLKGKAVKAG
Assay: SPR; His-MnmC(m) captured (~600 RU) on anti-His monoclonal antibody coupled to a CM-5 chip; Flag-MnmC(o) at various concentrations in TBS buffer, 30 µl/min, 25°C; apparent equilibrium constant
Conditions: both partners purified

Kd: 87 ± 15 nM
B1: His-MnmC(m), MnmC(m) domain fused at its N-terminal end to a 6x-His-epitope (domain or fragment, E. coli, UniProt P77182 1-250, looked up)
chain: MKHYSIQPANLEFNAEGTPVSRDFDDVYFSNDNGLEETRYVFLGGNQLEVRFPEHPHPLFVVAESGFGTGLNFLTLWQAFDQFREAHPQAQLQRLHFISFEKFPLTRADLALAHQHWPELAPWAEQLQAQWPMPLPGCHRLLLDEGRVTLDLWFGDINELTSQLDDSLNQKVDAWFLDGFAPAKNPDMWTQNLFNAMARLARPGGTLATFTSAGFVRRGLQDAGFTMQKRKGFGRKREMLCGVMEQTLPL
